Reference: publication PMC7644609 (Proteins, 2020)

Biological target: the molecule itself
Test: crystal structure

B1: dCaprin fragment (residues 187-309), dimerization domain of Drosophila melanogaster Caprin (domain or fragment)
chain: GPSSPSRKDNLAKTIAETAKIREVLIIQNVLNCFNDDQVRSDFLNGENGAKKLENTELELLEKFFIETQTRRPETADDVSFIATAQKSAELFYSTINARPKSFGEVSFEKLRSLFQQIQDSGYLDKYYL
modifications: Se-Met labelled (L-seleno-methionine in place of methionine) in the crystal used for the structure
stoichiometry N: 2
